Laboratory results reported in paper PMC8318587, “Structure-guided microbial targeting of antistaphylococcal prodrugs” (eLife, 2021).

What was measured:
Experiment in all cases: Esterase substrate specificity, fluorogenic SAR library kinetics
Type in all cases: biochemical, Staphylococcus aureus
Conditions in all cases: other: SaGloB, fluorogenic ester substrate; pH 7.5; 37.0 °C
[1] = substrate: CC(C)CCC(=O)OCOc1ccc2c(c1)Oc1cc(OCOC(=O)CCC(C)C)ccc1C21OC(=O)c2ccccc21
Description: (§1) Kinetic measurements were performed according to [White et al., 2018] with minor variation. Lyophilized human and mouse sera were resuspended according to manufacturer instructions in highly pure, filtered water at protein concentrations of 85 mg/mL and 70 mg/mL, respectively. One milliliter of resuspended serum was added to a 24 mL mastermix for a final concentration of 31.25 mM Tris pH 7.5, 312.5 mM NaCl, 1.25 mM MgCl2, 12.5% glycerol, and 3.4 mg/mL or 2.8 mg/mL protein for human and mouse serum, respectively. For purified proteins, 5 mL of a 75 µg/mL stock was added to yield a 20 mL mastermix containing 31.25 mM Tris pH 7.5, 312.5 mM NaCl, 1.25 mM MgCl2, 12.5% glycerol, and 18.75 µg/mL protein. Mastermix was stored on ice when not in use. Twenty microliters of mastermix was transferred to a black, 96-well half area microplate (Corning, CLS3993) and prewarmed at 37°C. Fluorogenic substrates were prepared as 10 mM stock solutions in 100% DMSO and were diluted in water to a starting concentration of 500 µM. Enzyme catalyzed substrate hydrolysis was initiated by addition of 5 µL substrate dilution in technical duplicate to the prewarmed serum or protein solution. Final assay concentrations were as follows: 25 mM Tris pH 7.5, 250 mM NaCl, 1 mM MgCl2, 10% glycerol, and protein at a concentration of 2.72 mg/mL (human serum), 2.24 mg/mL (mouse serum), or 15 µg/mL (FrmB, GloB). The resulting change in fluorescence (λex = 485 nm, λem = 520 nm) was followed for 15 min at 37°C, collecting data every 30 s on a FLUOstar Omega microplate reader (BMG Labtech). Fluorescence measurements were converted to molar concentrations using a fluorescein standard curve (2.5 nmol–0.6 pmol). The initial rates of reaction were measured three independent times with two technical replicates per measurement and fit to a line using GraphPad Prism (GraphPad Software, La Jolla, CA). Initial rates of reaction were plotted versus the concentration of substrate and fit to a standard Michaelis–Menten equation (v = Vmax[S]/(Km + [S])), yielding estimates of Vmax and Km. Values for kcat and kcat/Km were calculated based on amount of enzyme added when purified enzymes were used.

[2] = substrate: COCC(=O)OCOc1ccc2c(c1)Oc1cc(OCOC(=O)COC)ccc1C21OC(=O)c2ccccc21
Description: as §1

[3] = substrate: CCOC(C)C(=O)OCOc1ccc2c(c1)Oc1cc(OCOC(=O)C(C)OCC)ccc1C21OC(=O)c2ccccc21
Description: as §1

[4] = substrate: CCOCC(=O)OCOc1ccc2c(c1)Oc1cc(OCOC(=O)COCC)ccc1C21OC(=O)c2ccccc21
Description: as §1

[5] = substrate: C=CCOC(C)C(=O)OCOc1ccc2c(c1)Oc1cc(OCOC(=O)C(C)OCC=C)ccc1C21OC(=O)c2ccccc21
Description: as §1

[6] = substrate: CCSCCC(=O)OCOc1ccc2c(c1)Oc1cc(OCOC(=O)CCSCC)ccc1C21OC(=O)c2ccccc21
Description: as §1

B1: SaGloB (Staphylococcus aureus subsp. aureus str. Newman) (protein)
chain: MRISSLTLGLVDTNTYFIENDKAVILIDPSGESEKIIKKLNQINKPLKAILLTHAHFDHIGAVDDIVDRFDVPVYMHEAEFDFLKDPVKNGADKFKQYGLPIITSKVTPEKLNEGSTEIEGFKFNVLHTPGHSPGSLTYVFDEFAVVGDTLFNNGIGRTDLYKGDYETLVDSIQDKIFELEGDLPLFPGHGPYTTVDDEQLNPFLHG
- Km [1]: 48.00 µM
- Vmax [1]: 0.444 pmol*min-1*μg protein-1
- kcat [1]: 0.0663 10-3 s-1
- kcat/Km [1]: 1.38 M⁻¹ s⁻¹
- Km [2]: 73.5 µM
- Vmax [2]: 217 pmol*min-1*μg protein-1
- kcat [2]: 32.5 10-3 s-1
- kcat/Km [2]: 442 M⁻¹ s⁻¹
- Km [3]: 15.5 µM
- Vmax [3]: 1.01 pmol*min-1*μg protein-1
- kcat [3]: 0.151 10-3 s-1
- kcat/Km [3]: 9.71 M⁻¹ s⁻¹
- Km [4]: 42.0 µM
- Vmax [4]: 46.4 pmol*min-1*μg protein-1
- kcat [4]: 6.93 10-3 s-1
- kcat/Km [4]: 165 M⁻¹ s⁻¹
- Km [5]: 36.91 µM
- Vmax [5]: 1.04 pmol*min-1*μg protein-1
- kcat [5]: 0.156 10-3 s-1
- kcat/Km [5]: 4.21 M⁻¹ s⁻¹
- Km [6]: 31.7 µM
- Vmax [6]: 0.18 pmol*min-1*μg protein-1
- kcat [6]: 0.0266 10-3 s-1
- kcat/Km [6]: 0.840 M⁻¹ s⁻¹
